Target: the molecule itself
Test: SEC-MALS; Superdex 200 10/300 GL, 25 mM Tris pH 7.4, 0.2 g/L NaN2, 0.5 mL/min

B1: Drosophila melanogaster CP190 BTB domain (residues 1-135) (domain or fragment, UniProt Q24478 1-135, looked up)
chain: MGEVKSVKVDNWGVFFLQKLQNFFNKTDYCDLTLQFRDNSQLKVHRLVLSACTDYFNVLEQTCEIVDDALIMPNEFQADVVVPIVNFMYTGTLEFELKMYGKLLRTAKEMNMTVLLKLLEAHRRTMENVNRQQRP
notes: CP190 (centrosome associated protein at 190 kDa), Drosophila melanogaster, BTB domain, residues 1-135; the final crystal model holds residues 2-121; Native and selenomethionine-substituted protein were crystallised; also called BTB-WT; source: E. coli BL21 DE3 (pLysS), purified (Ni-NTA, thrombin digestion, Q-sepharose ion exchange); not shown: His6, N-terminal, cleaved
- stoichiometry N: 2
